These results are taken from patent CN109879965A.

For this test, the target named is CD3E on human peripheral blood T lymphocytes (human) (UniProt P07766). Description: cell-based or functional assay.
CD3E on human peripheral blood T lymphocytes (human), sequence (P07766 23-207): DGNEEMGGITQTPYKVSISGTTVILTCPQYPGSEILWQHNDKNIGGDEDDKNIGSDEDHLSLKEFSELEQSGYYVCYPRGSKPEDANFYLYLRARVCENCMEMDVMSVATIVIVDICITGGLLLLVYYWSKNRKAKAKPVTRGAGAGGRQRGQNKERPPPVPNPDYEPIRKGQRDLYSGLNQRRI

OKT3 (antibody) returned an IL-2 in the supernatant of PBMC after 48 h on plate-coated antibody (1 μg/mL), IL-2 ELISA of 400 pg/mL.
